Our source for the MFI (PD-L2-FITC) in presence of the antibody values is US20190276534A1.

For the assay, the target named is human PD-1 on CHO cells (human) (UniProt Q15116). The assay is described as follows: flow cytometry, CHO cells with human PD-1 incubated with antibody 100 nM, then PD-L2-FITC; competitor PD-L2-FITC.
Sequence of human PD-1 on CHO cells (human) (Q15116 25-288 limits assumed): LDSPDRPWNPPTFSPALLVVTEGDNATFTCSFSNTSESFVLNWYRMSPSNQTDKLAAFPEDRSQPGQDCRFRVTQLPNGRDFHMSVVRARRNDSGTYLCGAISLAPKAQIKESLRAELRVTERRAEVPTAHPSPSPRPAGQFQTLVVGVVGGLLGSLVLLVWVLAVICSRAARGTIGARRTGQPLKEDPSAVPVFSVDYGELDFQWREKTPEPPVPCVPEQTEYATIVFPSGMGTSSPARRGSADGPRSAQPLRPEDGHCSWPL

For the substance control IgG (antibody), the MFI (PD-L2-FITC) in presence of the antibody was 183000.
